The values that follow come from patent publication US20110123554A1 (BIOTEST, published 2011).

The target in assay [1] is T1, CD138 on the cell surface (human, UniProt P18827 23-310).
T1 sequence (looked up): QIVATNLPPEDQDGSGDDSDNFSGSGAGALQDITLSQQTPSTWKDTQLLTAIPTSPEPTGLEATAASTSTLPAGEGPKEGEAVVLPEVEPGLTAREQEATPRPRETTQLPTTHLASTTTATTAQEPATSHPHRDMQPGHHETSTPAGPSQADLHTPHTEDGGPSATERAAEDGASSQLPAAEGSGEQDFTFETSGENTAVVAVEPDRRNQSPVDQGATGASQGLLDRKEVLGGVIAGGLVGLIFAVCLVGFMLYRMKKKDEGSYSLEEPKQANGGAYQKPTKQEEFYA
In words: cell-based or functional assay.

The target of assay [2] is T2, Soluble CD138 antigen from U-266 cell culture supernatant, biotinylated (human, UniProt P18827 23-245, limits assumed, biotinylated on primary amino groups with EZ-Link Sulfo-NHS-LC-Biotin).
T2 construct: Captured on a streptavidin SENSOR CHIP SA for the BIACORE assay; Soluble (shed) form; also called bCD138; biotinylated CD138
T2 sequence (looked up): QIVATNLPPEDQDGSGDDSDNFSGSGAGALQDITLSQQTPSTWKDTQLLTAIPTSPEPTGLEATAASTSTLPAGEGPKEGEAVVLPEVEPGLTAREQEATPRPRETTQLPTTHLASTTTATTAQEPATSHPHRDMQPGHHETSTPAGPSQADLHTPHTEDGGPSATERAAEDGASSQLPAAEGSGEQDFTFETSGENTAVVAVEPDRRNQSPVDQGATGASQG
Briefly: BIACORE C, biotinylated soluble CD138 on SA chip, conjugate as analyte; single experiment.

Assay [3] has as its target T2, Soluble CD138 antigen from U-266 cell …. Briefly: BIACORE C, biotinylated soluble CD138 on SA chip, conjugate as analyte; mean of three experiments.
For assay [4], the target named is T1, CD138 on the cell surface. In words: FACS on CD138+ OPM-2 cells, fluorescence-labelled secondary antibody, mean fluorescence against concentration.
Text: The cells were washed and CD138-bound antibody or conjugates were detected using a fluorescence-labeled secondary antibody in FACS analysis. The mean fluorescence measured in these experiments was plotted against the antibody concentration.

Where “and” joins values, the source holds several entries; their conditions need not be identical. Equal entries are not always repeated.

B1: nBT062-SPDB-DM4 (antibody, human IgG4, kappa, V domains shown)
VH: QVQLQQSGSELMMPGASVKISCKATGYTFSNYWIEWVKQRPGHGLEWIGEILPGTGRTIYNEKFKGKATFTADISSNTVQMQLSSLTSEDSAVYYCARRDYYGNFYYAMDYWGQGTSVTVSS
VL: DIQMTQSTSSLSASLGDRVTISCSASQGINNYLNWYQQKPDGTVELLIYYTSTLQSGVPSRFSGSGSGTDYSLTISNLEPEDIGTYYCQQYSKLPRTFGGGTKLEIKR
modifications: maytansinoid DM4 linked by disulfide bond through SPDB linker; residues carrying the drug not stated
Take B1: the “Sensitivity IC50 (nM), cell line NCI-H929 (MM)” value in assay [1] was determined as 0.38 nM.

B2: B-B4-SPP-DM1 (antibody, V domains shown)
VH: B1 VH
VL: DIQMTQSTSSLSASLGDRVTISCSASQGINNYLNWYQQKPDGTVELLIYYTSTLQSGVPSRFSGSGSGTDYSLTISNLEPEDIGTYYCQQYSKLPRTFGGGTKLEIK
modifications: maytansinoid DM1 linked through SPP linker; residues carrying the drug not stated
notes: Variable domains as for B-B4 (see its note)
Regarding B2, the Kd is 2.6 nM and 2.7 nM in assay [2]; 2.6 nM in assay [3].

B3: nBT062 (antibody, human IgG4, kappa, V domains shown)
VH: B1 VH
VL: B1 VL
notes: also called cB-B4; chimeric B-B4
Turning to B3, the “EC50 (read off the curve)” value in assay [4] is about 1 nM.

B4: nBT062-SMCC-DM1 (antibody, human IgG4, kappa, V domains shown)
VH: B1 VH
VL: B1 VL
modifications: maytansinoid DM1 linked through non-cleavable SMCC linker; residues carrying the drug not stated
For B4, the “EC50 (read off the curve)” value in assay [4] is about 1 nM.

B5: nBT062-SPP-DM1 (antibody, human IgG4, kappa, V domains shown)
VH: B1 VH
VL: B1 VL
modifications: maytansinoid DM1 linked through SPP linker; residues carrying the drug not stated
notes: an average of 3.5 DM1 per antibody is stated for nBT062-DM1 conjugates
For the molecule B5, the “EC50 (read off the curve)” value in assay [4] was about 1 nM.
